In US20240116985A1 (published 2024):
Read-outs that look alike come from different tables or passages of the source. Values belong to the binder of their own block, whether it stands above or below them. Starred links: 1 amine or outer side, 2 acyl side, 3 side chain; linkers in the order of their positions; H or OH if unused. Positions of bridges follow the written chain, without caps; N, C: chain ends. Non-standard residues stand in square brackets, D forms with d. Primed or numbered codes have the meaning given here. PyrS2(3) = (S)-3-amino-1-((pent-4-en-1-yloxy)carbonyl)pyrrolidine-3-carboxylic acid, stapling residue, C=CCCCOC(=O)N1CC[C@@](N[*:1])(C(=O)[*:2])C1; PyrS2″ = (S)-3-amino-1-((pent-4-en-1-yloxy)carbonyl)pyrrolidine-3-carboxylic acid (stapling residue), C=CCCCOC(=O)N1CC[C@@](N[*:1])(C(=O)[*:2])C1; B5(24) = 2-amino-2-(pent-4-en-1-yl)hept-6-enoic acid, 2,2-bis(4-pentenyl)glycine (stitching residue), C=CCCCC(CCCC=C)(N[*:1])C(=O)[*:2]; B5(4) = 2,2-bis(4-pentenyl)glycine = 2-amino-2-(pent-4-en-1-yl)hept-6-enoic acid (stitching residue), C=CCCCC(CCCC=C)(N[*:1])C(=O)[*:2]; TfeGA = (S)-2-amino-3-((carboxymethyl)(2,2,2-trifluoroethyl)amino)propanoic acid, O=C([C@H](CN(CC(=O)[*:3])CC(F)(F)F)N[*:1])[*:2]; PyrS2 = (S)-3-amino-1-((pent-4-en-1-yloxy)carbonyl)pyrrolidine-3-carboxylic acid, C=CCCCOC(=O)N1CC[C@@](N[*:1])(C(=O)[*:2])C1; MePpzAsn = (S)-2-amino-4-(4-methylpiperazin-1-yl)-4-oxobutanoic acid, CN1CCN(C(=O)C[C@H](N[*:1])C(=O)[*:2])CC1; F2PipNva = (S)-2-amino-5-(4,4-difluoropiperidin-1-yl)pentanoic acid, O=C([C@H](CCCN1CCC(F)(F)CC1)N[*:1])[*:2]; B5(3) = 2,2-bis(4-pentenyl)glycine (stitching residue), C=CCCCC(CCCC=C)(N[*:1])C(=O)[*:2]; B5″ = 2,2-bis(4-pentenyl)glycine, stitching residue, C=CCCCC(CCCC=C)(N[*:1])C(=O)[*:2]; Asp(OEt)″ = aspartic acid side-chain ethyl ester, CCOC(=O)C[C@H](N[*:1])C(=O)[*:2]; Asp(OMe) = [Me]AspE, Asp side-chain methyl ester, COC(=O)C[C@H](N[*:1])C(=O)[*:2]; Phe(F5) = N[C@@H](Cc1c(F)c(F)c(F)c(F)c1F)C(=O)O; Phe(3-COOH) = N[C@@H](Cc1cccc(C(=O)O)c1)C(=O)O; 2F3MeF = Cc1cccc(C[C@H](N[*:1])C(=O)[*:2])c1F; Phe(3-CN) = N#Cc1cccc(C[C@H](N)C(=O)O)c1; Phe(3-OMe) = COc1cccc(C[C@H](N)C(=O)O)c1; Phe(4-CN) = N#Cc1ccc(C[C@H](N)C(=O)O)cc1; Phe(2-CN) = N#Cc1ccccc1C[C@H](N)C(=O)O; Phe(2-Cl) = N[C@@H](Cc1ccccc1Cl)C(=O)O; Bta = N[C@@H](Cc1csc2ccccc12)C(=O)O; Lys(iPr) = CC(C)NCCCC[C@H](N)C(=O)O; αAllylPro = C=CC[C@@]1(C(=O)O)CCCN1; tBuAla = CC(C)(C)C[C@H](N)C(=O)O; 3Thi = N[C@@H](Cc1ccsc1)C(=O)O; Cha = N[C@@H](CC1CCCCC1)C(=O)O; S8 = C=CCCCCCC[C@](C)(N)C(=O)O; hSer = N[C@@H](CCO)C(=O)O

Assays:
Assay in all cases: cell-based or functional assay
[1] = molecular target: T1, B-cat-Halo (beta-catenin HaloTag fusion expressed in HEK293 cells) (UniProt P35222 1-781, HaloTag NanoBRET 618 Ligand bound to the HaloTag)
T1 sequence (looked up): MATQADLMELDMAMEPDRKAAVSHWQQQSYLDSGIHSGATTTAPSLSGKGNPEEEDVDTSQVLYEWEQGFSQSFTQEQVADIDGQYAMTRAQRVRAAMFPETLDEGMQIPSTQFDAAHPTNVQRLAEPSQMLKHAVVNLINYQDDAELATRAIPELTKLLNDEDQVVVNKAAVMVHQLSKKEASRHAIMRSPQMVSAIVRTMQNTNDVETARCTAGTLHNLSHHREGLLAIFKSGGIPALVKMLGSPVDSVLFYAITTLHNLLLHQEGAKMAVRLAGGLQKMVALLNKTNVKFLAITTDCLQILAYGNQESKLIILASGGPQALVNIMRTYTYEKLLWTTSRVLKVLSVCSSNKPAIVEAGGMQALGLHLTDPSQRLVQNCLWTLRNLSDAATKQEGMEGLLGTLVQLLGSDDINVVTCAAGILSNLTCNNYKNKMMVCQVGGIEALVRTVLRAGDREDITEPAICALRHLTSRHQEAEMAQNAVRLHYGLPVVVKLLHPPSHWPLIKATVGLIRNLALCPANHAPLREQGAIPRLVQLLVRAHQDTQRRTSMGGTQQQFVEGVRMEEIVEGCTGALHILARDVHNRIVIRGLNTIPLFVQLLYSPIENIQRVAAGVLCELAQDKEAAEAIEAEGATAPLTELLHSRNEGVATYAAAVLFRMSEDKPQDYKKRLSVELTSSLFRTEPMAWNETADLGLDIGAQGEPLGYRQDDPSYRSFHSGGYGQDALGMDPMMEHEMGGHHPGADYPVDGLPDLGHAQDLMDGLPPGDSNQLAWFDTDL

B-cat-Halo [2] = molecular target: T2, B-cat-Halo (UniProt P35222 1-781)
T2 sequence (looked up): T1 sequence (looked up)

[3] = molecular target: T3, B-cat-Halo (beta-catenin HaloTag construct expressed in HEK293 cells) (UniProt P35222 1-781)
T3 sequence (looked up): T1 sequence (looked up)

B-cat-Halo [4] = molecular target: T4, B-cat-Halo (UniProt P35222 1-781); remark: listed apart in the source
T4 sequence (looked up): T1 sequence (looked up)

Binder: Ac-[αAllylPro]D[tBuAla][B5(24)]DD[Lys(iPr)]AFN[PyrS2″][Phe(2-Cl)][Bta]Q-NH2 (staple 1-4, 4-11) [I-1131]
NanoBRET Abs IC50 (B-cat-Halo [4]): 18.8 µM

Binder: Ac-[αAllylPro]D[tBuAla][B5″]DDAAFL[S8][3Thi][Bta]Q-NH2 (staple 1-4, 4-11) [I-1188]
NanoBRET Abs IC50 [3]: 7.2 µM

Binder: Ac-[αAllylPro]D[tBuAla][B5″]DDAA[Phe(2-CN)]L[PyrS2(3)][3Thi][Bta]Q-NH2 (staple 1-4, 4-11) [I-1200]
NanoBRET Abs IC50 [3]: > 20 µM

Binder: Ac-[αAllylPro]D[tBuAla][B5″]DDAAFN[PyrS2(3)][Phe(F5)][Bta]Q-NH2 (staple 1-4, 4-11) [I-1186]
NanoBRET Abs IC50 [3]: 23.6 µM

Binder: Ac-[αAllylPro]D[Cha][B5(24)]DDAAFS[PyrS2″][Phe(2-Cl)][Bta]L-NH2 (staple 1-4, 4-11) [I-1138]
NanoBRET Abs IC50 (B-cat-Halo [4]): 19.8 µM

Binder: Ac-[αAllylPro]D[tBuAla][B5″]DDAA[Phe(3-CN)]L[PyrS2(3)][3Thi][Bta]Q-NH2 (staple 1-4, 4-11) [I-1201]
NanoBRET Abs IC50 [3]: 19.6 µM

Binder: Ac-[αAllylPro]D[Cha][B5(24)]DDAAFS[PyrS2″][Phe(2-Cl)][Bta][dT]-NH2 (staple 1-4, 4-11) [I-1136]
NanoBRET Abs IC50 (B-cat-Halo [4]): 14.9 µM

Binder: Ac-[αAllylPro]D[Cha][B5(3)]DDAA[Phe(3-OMe)]S[PyrS2″]F[Bta]Q-NH2 (staple 1-4, 4-11) [I-1124]
NanoBRET Abs IC50 (B-cat-Halo [4]): > 20 µM

Binder: Ac-[αAllylPro]D[tBuAla][B5″]DDAAFL[S8][3Thi][Bta]H-NH2 (staple 1-4, 4-11) [I-1195]
NanoBRET Abs IC50 [3]: 16.2 µM

Second part, the binder after the results:

NanoBRET Abs IC50 [1]: > 20 µM
Binder: Ac-[αAllylPro][Asp(OMe)][tBuAla][B5(3)]DDAAFL[PyrS2″][3Thi][Bta]Q-NH2 (staple 1-4, 4-11) [I-2359]

NanoBRET Abs IC50 (B-cat-Halo [2]): > 20 µM
Binder: Ac-[αAllylPro]N[tBuAla][B5(4)]DT[Lys(iPr)]AFN[PyrS2]F[Bta]Q-NH2 (staple 1-4, 4-11) [I-1602]

NanoBRET Abs IC50 [1]: > 20 µM
Binder: Ac-[αAllylPro]D[tBuAla][B5(3)][Asp(OEt)″]DAAFL[PyrS2″][3Thi][Bta]Q-NH2 (staple 1-4, 4-11) [I-2357]

NanoBRET Abs IC50 [1]: > 20 µM
Binder: Ac-[αAllylPro]N[Cha][B5(3)]DQ[hSer]AFL[PyrS2″]F[Bta]Q-NH2 (staple 1-4, 4-11; also: earlier eluting isomer, configuration not given here) [I-2354]

NanoBRET Abs IC50 [3]: 16.3 µM
Binder: Ac-[αAllylPro]D[tBuAla][B5″]DDAA[Phe(4-CN)]L[PyrS2(3)][3Thi][Bta]Q-NH2 (staple 1-4, 4-11) [I-1202]

NanoBRET Abs IC50 [1]: 52.2 µM
Binder: Ac-[αAllylPro]D[tBuAla][B5(3)]D[Asp(OEt)″]AAFL[PyrS2″][3Thi][Bta]Q-NH2 (staple 1-4, 4-11) [I-2358]

NanoBRET Abs IC50 (B-cat-Halo [2]): 15.1 µM
Binder: Ac-[αAllylPro]D[tBuAla][B5(4)]D[Phe(3-COOH)]AAFL[PyrS2][2F3MeF][Bta][F2PipNva]-NH2 (staple 1-4, 4-11) [I-1608]

NanoBRET Abs IC50 (B-cat-Halo [2]): 9.8 µM
Binder: Ac-[αAllylPro]D[tBuAla][B5(3)]D[TfeGA]AAFT[PyrS2″][Phe(2-Cl)][Bta][MePpzAsn]-NH2 (staple 1-4, 4-11) [I-1611]
